Where a chain is given by its changes, count along the chain named. Names may count otherwise. “And” between values parts separate entries of the source, which are not always exact repeats. Equal entries are not always repeated.
How the values were obtained:
SAH7 = molecular target: T1, SAH7 (Rattus norvegicus, UniProt P31652, A505L/L405A/P499A); experiment: [125I]-RTI55 saturation binding on membranes, SAH7; details: read-out: apparent KD for [125I]-RTI55 binding
T1 construct: expressed in transfected cells; host or cells: T-REx-293 (HEK293) cells, membranes

SAH6 [1] = molecular target: T2, SAH6 (Rattus norvegicus, UniProt P31652, A505L/G278A/L99A); experiment: [125I]-RTI55 saturation binding on membranes, SAH6; design: expressed in transfected cells; host or cells: T-REx-293 (HEK293) cells, membranes; details: read-out: apparent KD for [125I]-RTI55 binding
SAH6 [2] = molecular target: T2, SAH6; details: SAH6 vs wild-type SERT
[3] = Thermostability assay of [125I]-RTI55-bound detergent-solubilised SERT (apparent Tm)
[4] = system: tetracycline-induced stable T-REx cell lines; experiment: [3H]-5HT uptake assay; format: cell-based; details: cell lines expressing cell surface-expressed mutant-GFP
T-REx-293 cells [5] = experiment: Expression level of SERT-mCherry mutants transiently transfected into T-REx-293 cells; format: cell-based; details: relative to wild-type SERT = 100%; transient transfection
Procedure: (FIG. 3A) Comparison of [^125I]-RTI55 bound to 554 detergent-solubilised Ala/Leu mutants at either 4° C. or after heating at 30° C. for 30 minutes. The data relating to thermostability (the heated samples) have been normalized to the amount of wild-type SERT remaining after heating (40%; horizontal dashed line). The expression level of wild-type SERT is indicated by the vertical dashed line and the grey column (0-200 dpm) represents non-specific binding of [^125I]-RTI55 to the parental T-REx-HEK293 cell line (no SERT). Each data point represents binding to the equivalent of 50,000 cells measured in duplicate (estimated error is ±20% in dpm). […] (FIG. 3C) Amino acid sequence of SERT (SEQ ID NO: 1) showing the positions of the thermostabilising mutations (hatched) that consistently gave >1° C. increase in Tm compared to wild-type SERT; residues in bold and hatched were used to stabilize either SAH6 and/or SAH7. N-linked glycosylation sites are indicated by the hexagons, a putative disulphide bond is shown as a grey line and the N-terminal and C-terminal fusion partners are shown (c-Myc tag and the fluorescent reporter protein mCherry) are indicated.

T-REx-293 cells [6] = experiment: Cell surface expression by confocal microscopy; format: cell-based; design: key: *: low expression; **: as wild-type SERT; ***: higher expression than wild-type SERT; details: estimation by eye of fluorescence upon confocal microscopy

COC(=O)[C@H]1C(c2ccc(I)cc2)C[C@@H]2CC[C@H]1N2C (stereo partly drawn) [[^125I]-RTI55, RTI55 (β-CIT)]
Kd (SAH7): 1.3 nM and 1.2 nM and 1.5 nM | Kd (SAH6 [1]): 3.8 nM and 3.7 nM

CN(C)CCCN1c2ccccc2CCc2ccccc21 [imipramine]
decrease in affinity relative to wild-type SERT (SAH6 [2]): 6.7 fold

ibogaine
decrease in affinity relative to wild-type SERT (SAH6 [2]): 4.5 fold

B1: wild-type SERT: cocaine-sensitive rat serotonin transporter, parent protein (protein, listed as Rattus sp.)
chain: METTPLNSQKVLSECKDREDCQENGVLQKGVPTTADRAEPSQISNGYSAVPSTSAGDEASHSIPAATTTLVAEIRQGERETWGKKMDFLLSVIGYAVDLGNIWRFPYICYQNGGGAFLLPYTIMAIFGGIPLFYMELALGQYHRNGCISIWRKICPIFKGIGYAICIIAFYIASYYNTIIAWALYYLISSLTDRLPWTSCTNSWNTGNCTNYFAQDNITWTLHSTSPAEEFYLRHVLQIHQSKGLQDLGTISWQLTLCIVLIFTVIYFSIWKGVKTSGKVVWVTATFPYIVLSVLLVRGATLPGAWRGVVFYLKPNWQKLLETGVWVDAAAQIFFSLGPGFGVLLAFASYNKFNNNCYQDALVTSVVNCMTSFVSGFVIFTVLGYMAEMRNEDVSEVAKDAGPSLLFITYAEAIANMPASTFFAIIFFLMLITLGLDSTFAGLEGVITAVLDEFPHIWAKRREWFVLIVVITCVLGSLLTLTSGGAYVVTLLEEYATGPAVLTVALIEAVAVSWFYGITQFCSDVKEMLGFSPGWFWRICWVAISPLFLLFIICSFLMSPPQLRLFQYNYPHWSIVLGYCIGMSSVICIPTYIIYRLISTPGTLKERIIKSITPETPTEIPCGDIRMNAV
amount of transporter remaining after heating ([3]; 30° C. for 30 minutes): 40% | Apparent Tm in 0.1% DDM ([3]; 125I-RTI55-bound detergent-solubilised SERT, apparent Tm ±1° C.): 28 °C | apparent Tm ([3]; [125I]-RTI55-bound, DDM-solubilised, 30 min heating): 28 °C | transporter remaining functional after heating ([3]; single-temperature assay, 28° C. for 30 minutes): approximately 40%

B2: SAH6: thermostabilised rat SERT triple mutant A505L+L99A+G278A (protein, UniProt P31652 1-630, looked up, variant A505L L99A G278A)
Sodium-dependent serotonin …: B1 chain with L99A, G278A, A505L
transport of [3H]-5HT into the cell [4]: no significant transport

B3: SAH7: thermostabilised rat SERT triple mutant A505L+P499A+L405A (protein, UniProt P31652 1-630, looked up, variant A505L P499A L405A)
Sodium-dependent serotonin …: B1 chain with L405A, P499A, A505L
transport of [3H]-5HT into the cell [4]: no significant transport

B4: A505L: rat SERT single mutant A505L (protein)
chain: B1 chain with A505L
Expression (%) SERT = 100% (T-REx-293 cells [5]): 175% | Cell surface expression (T-REx-293 cells [6]): ***

B5: G113A: rat SERT single mutant G113A (protein)
chain: B1 chain with G113A
Expression (%) SERT = 100% (T-REx-293 cells [5]): 42% | Cell surface expression (T-REx-293 cells [6]): **
